Here are results for ten substances from US20140100172A1.

Test [1] addresses human chemokine receptor type 4 (CXCR4) (human) (UniProt P61073). The test is described as follows: competition with 125I-CPCR4 tracer on CXCR4-expressing cells.
For test [2] the target is unchanged. The test is described as follows: radioligand competition binding; Jurkat cells. For orientation: Displacement assays read how much labelled ligand stays bound in the presence of the test substance.
Test [3] has the same target. The test is described as follows: radioligand competition binding; CMS5/CXCR4 cells.
The target is the same in test [4]. Briefly: radioligand competition binding; tracer 125I-CPCR4; Jurkat; site (1). Also on record: unit not given here.
Test [5] has the same target. Briefly: radioligand competition binding; tracer 125I-CPCR4; Jurkat; site (2). The arrangement: unit not given here.
For test [6] the target is unchanged. The test is described as follows: radioligand competition binding; tracer 125I-CPCR4; CMS5/CXCR4; site (1). Also on record: unit not given here.
The target is the same in test [7]. The test is described as follows: radioligand competition binding; tracer 125I-CPCR4; CMS5/CXCR4; site (2). The arrangement: unit not given here.
Test [8] shares this target. Briefly: radioligand competition binding; tracer 125I-SDF-1α; CMS5/CXCR4; site (1). The arrangement: unit not given here.
Test [9] has the same target. Briefly: radioligand competition binding; tracer 125I-SDF-1α; CMS5/CXCR4; site (2). The arrangement: unit not given here.
Test [10] has the same target. The test is described as follows: radioligand competition binding; tracer 125I-CPCR4.
Test [11] shares this target. Briefly: radioligand competition binding; tracer 125I-SDF-1α.
Test [12] has the same target. Briefly: radioligand competition binding; tracer 125I-CPCR4; Jurkat. The arrangement: unit not given here.
The target is the same in test [13]. The test is described as follows: radioligand competition binding; tracer 125I-CPCR4; CMS5/CXCR4. The arrangement: unit not given here.

Sequence of human chemokine receptor type 4 (CXCR4) (human) (P61073 whole entry): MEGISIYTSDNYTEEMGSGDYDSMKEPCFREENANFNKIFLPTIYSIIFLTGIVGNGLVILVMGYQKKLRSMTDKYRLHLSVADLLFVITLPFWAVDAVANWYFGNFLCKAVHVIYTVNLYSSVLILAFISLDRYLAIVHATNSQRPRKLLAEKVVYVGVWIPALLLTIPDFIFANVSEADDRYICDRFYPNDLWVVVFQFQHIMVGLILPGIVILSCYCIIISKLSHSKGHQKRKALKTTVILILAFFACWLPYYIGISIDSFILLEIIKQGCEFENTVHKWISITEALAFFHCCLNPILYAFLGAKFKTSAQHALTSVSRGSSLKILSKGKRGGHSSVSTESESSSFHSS

In the case of “cyc[D-Tyr-D-Orn(FB)-Arg-Nal-Gly] (peptide)”, in test [1], the IC50 (as a rule, the concentration at which inhibition is half-maximal) was 86 nM.

In [1], cyc[Nal-Gly-D-Tyr-Arg-Orn] (peptide) had an IC50 of 1000 nM.

Regarding 125I-CPCR4, the IC50 in test [2] is 4 nM; in [3] it was 6.5 nM.

“cyc[D-Tyr-Orn(FB)-Arg-Nal-Gly] (peptide)” returned an IC50 in [1] of 11 nM.

The substance “cyc[D-Tyr-(Me)D-Orn(Me, FB)-Arg-Nal-Gly] (peptide)” had an IC50 in test [1] of 59 nM.

For the substance “cyc[D-Tyr-Orn(Bz, FB)-Arg-Nal-Gly] (peptide)”, the IC50 in test [1] worked out at 100 nM.

In test [1], “cyc[D-Tyr-Orn(Ahx)-Arg-Nal-Gly] (peptide)” yielded an IC50 of 70 nM.

Turning to Iodo-CPCR4, the half-maximal inhibitory concentration (IC50) in [4] is 0.01 ?; in test [5], 4.6 ?; in [6], 0.01 ?; in test [7], 3.5 ?; in test [8], 0.02 ?; in test [9], 8.8 ?.

For cyc[Nal-Gly-D-Tyr-Orn-Arg] (peptide), the IC50 in test [1] worked out at 9 nM.

On to CPCR4, cyclo[D-Tyr-Arg-Arg-Nal-Gly], for which the IC50 is 3.8 nM in test [10]; 5.5 nM in test [11]; 3.7 ? in test [12]; 6.8 ? in test [13]; 0.01 ? in test [8]; 6.9 ? in [9].
